System: MS2 coat protein
Assay: apparent KD of MS2 coat protein; designed switch direction (-1 OFF switch, 1 ON switch): -1; higher = weaker reporter binding
In short: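 Designed RNA switches sharing common flanks were transcribed on Illumina chips by stalled E. coli RNA polymerase. They were titrated with SNAP-549-labelled MS2 coat protein, from 0.7 or 1.5 nM doubling to 3 µM, in Tris-HCl pH 7.5 buffer with KCl, MgCl2, BSA, DTT, tRNA and Tween-20. Titrations ran without input, with 200 uM small-molecule ligand, or with an oligonucleotide input. The apparent KD of each design is the median over its clusters, after curve-fitting of normalised cluster fluorescence.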

[1] = Eterna round: R95, input ligand: FMN 200 uM
[2] = Eterna round: R95, input ligand: microRNA oligo, concentration not stated
[3] = Eterna round: R95, input ligand: none
[4] = input ligand: microRNA oligo, concentration not stated

Sequence	apparent KD of MS2 coat protein [1]	apparent KD of MS2 coat protein [2]	apparent KD of MS2 coat protein [3]	apparent KD of MS2 coat protein (input ligand: FMN 200 uM)	apparent KD of MS2 coat protein [4]	apparent KD of MS2 coat protein (input ligand: none)
AGUACUAACACGAAAGUGUUAGUAAAAUAAGCUUGUGGUACAUGAGGAUCACCCAUGUCCUCAUAAGCUCGUCUUAU [Mat - Sensor v3 - Turn-off var 2 - D42] (puzzle: Sensor v3, turn-off variant 2)	21.6 nM	78.8 nM	20.6 nM	–	–	–
AGUACUAACACGAAAGUGUUAGUACAACAAGCUUGUGAAACAUGAGGAUCACCCAUGUCCUCAUAAGCUCGUCUUAU [salish99_TOv2_r3_042] (puzzle: Sensor v3, turn-off variant 2)	13.7 nM	463 nM	11.9 nM	–	–	–
AGUACUAACACGAAAGUGUUAGUACAAUAAGCUAGUGGAACAUGAGGAUCACCCAUGUCCUCAUUAGCUCGUCUUGG [Mat - Sensor v3 - Turn-off var 2 - D40] (puzzle: Sensor v3, turn-off variant 2)	16.4 nM	19.6 nM	14.6 nM	–	–	–
AGUACUAACACGAAAGUGUUAGUACAAUAAGCUUGUGAAACAUGAGGAUCACCCAUGUCCUCAUUAGCUCGUCUUAU [salish99_TOv2_r3_050] (puzzle: Sensor v3, turn-off variant 2)	184 nM	451 nM	172 nM	–	–	–
AGUACUAACACGAAAGUGUUAGUACAAUAAGCUUGUGCAACAUGAGGAUCACCCAUGUCCUCAUAAGCUCGUCUUAU [salish99_TOv2_r3_044] (puzzle: Sensor v3, turn-off variant 2)	544 nM	75.2 nM	574 nM	–	–	–
AGUACUAACACGAAAGUGUUAGUACAAUAAGCUUGUGUUACAUGAGGAUCACCCAUGUCCUCAUAAGCUCGUCUUAA [Mat - Sensor v3 - Turn-off var 2 - D49] (puzzle: Sensor v3, turn-off variant 2)	39.9 nM	200 nM	47.4 nM	–	–	–
AGUACUAACACGAAAGUGUUAGUACUAUAAGCUUGUGUAACAUGAGGAUCACCCAUGUCCUCAUAAGCUCGUCUUAU [Mat - Sensor v3 - Turn-off var 2 - D100] (puzzle: Sensor v3, turn-off variant 2)	58.3 nM	131 nM	61.2 nM	–	–	–
AGUACUAACACGAAAGUGUUAGUCCAAUAAGCUUGUGAAACAUGAGGAUCACCCAUGUCCUCAUAAGCUCGUCUUAU [salish99_TOv2_r3_038] (puzzle: Sensor v3, turn-off variant 2)	17.4 nM	454 nM	–	–	–	–
AGUACUAACACGAUAGUGUUAGUACUAUAAGCUUGUGUUACAUGAGGAUCACCCAUGUCCUCAUAAGCUCGUCUUAA [Mat - Sensor v3 - Turn-off var 2 - D65] (puzzle: Sensor v3, turn-off variant 2)	36.9 nM	420 nM	38.1 nM	–	–	–
AGUACUAACACGCGAGUGUUAGUACAAUAAGCUUGUGAAACAUGAGGAUCACCCAUGUCCUCAUAAGCUCGUCUUAU [salish99_TOv2_r3_059] (puzzle: Sensor v3, turn-off variant 2)	16.7 nM	674 nM	14.5 nM	–	–	–
AGUACUAACACGCGUGUGUUAGUACAAUAAGCUUGUGAAACAUGAGGAUCACCCAUGUCCUCAUAAGCUCGUCUUAU [salish99_TOv2_r3_076] (puzzle: Sensor v3, turn-off variant 2)	15.7 nM	608 nM	13.7 nM	–	–	–
AGUACUAACACGCUUGUGUUAGUACAAUAAGCUUGUGAAACAUGAGGAUCACCCAUGUCCUCAUAAGCUCGUCUUAU [salish99_TOv2_r3_072] (puzzle: Sensor v3, turn-off variant 2)	17 nM	654 nM	15.9 nM	–	–	–
AGUACUAACACGGAAGUGUUAGUACAAUAAGCUUGUGUUACAUGAGGAUCACCCAUGUCCUCAUAAGCUCGUCUUAA [Mat - Sensor v3 - Turn-off var 2 - D62] (puzzle: Sensor v3, turn-off variant 2)	48.4 nM	487 nM	40.2 nM	–	–	–
AGUACUAACACGGGAGUGUUAGUACAAUAAGCUUGUGAAACAUGAGGAUCACCCAUGUCCUCAUAAGCUCGUCUUAU [salish99_TOv2_r3_060] (Eterna round: R96, puzzle: Sensor v3, turn-off variant 2)	–	–	–	14.5 nM	436 nM	17.4 nM
AGUACUAACACGGGAGUGUUAGUACAAUAAGCUUGUGAAACAUGAGGAUCACCCAUGUCCUCAUAAGCUCGUCUUAU [salish99_TOv2_r3_060] (puzzle: Sensor v3, turn-off variant 2)	16.6 nM	717 nM	13.8 nM	–	–	–
AGUACUAACACGUAAGUGUUAGUACAAUAAGCUUGUGUUACAUGAGGAUCACCCAUGUCCUCAUAAGCUCGUCUUAU [Mat - Sensor v3 - Turn-off var 2 - D60] (puzzle: Sensor v3, turn-off variant 2)	134 nM	77.6 nM	150 nM	–	–	–
AGUACUAACACGUUUGUGUUAGUACAAUAAGCUUGUGAAACAUGAGGAUCACCCAUGUCCUCAUAAGCUCGUCUUAU [salish99_TOv2_r3_069] (puzzle: Sensor v3, turn-off variant 2)	17.4 nM	567 nM	16.3 nM	–	–	–
AGUACUAACGCGAAAGUGUUAGUACAAUAAGCUUGUGAAACAUGAGGAUCACCCAUGUCCUCAUAAGCUCGUCUUAU [salish99_TOv2_r3_023] (puzzle: Sensor v3, turn-off variant 2)	19 nM	549 nM	16.1 nM	–	–	–
AGUACUAACUCGAAAGUGUUAGUACAAUAAGCUUGUGAAACAUGAGGAUCACCCAUGUCCUCAUAAGCUCGUCUUAU [salish99_TOv2_r3_022] (Eterna round: R96, puzzle: Sensor v3, turn-off variant 2)	–	–	–	16 nM	430 nM	18 nM
AGUACUAACUCGAAAGUGUUAGUACAAUAAGCUUGUGAAACAUGAGGAUCACCCAUGUCCUCAUAAGCUCGUCUUAU [salish99_TOv2_r3_022] (puzzle: Sensor v3, turn-off variant 2)	15.7 nM	739 nM	15.3 nM	–	–	–
AGUACUAUCACGAAAGUGAUAGUACAAAAAGCAAGUGAAACAUGAGGAUCACCCAUGUCCUCAUUUGCUCGUCUUAU [Identical to 94% Sensor v2, turnoff variant 2] (puzzle: Sensor v3, turn-off variant 2)	16.8 nM	476 nM	12.7 nM	–	–	–
AGUACUAUCACGAAAGUGAUAGUACAAAAAGCAAGUGAAACAUGAGGAUCACCCAUGUCCUCAUUUGCUCGUCUUAU [JL turnoff v2 99] (Eterna round: R96, puzzle: Sensor v2, turn-off variant 2)	–	–	–	12.2 nM	375 nM	14.4 nM
AGUACUAUCACGAAAGUGAUAGUACAAAGAGCAAGUGGAACAUGAGGAUCACCCAUGUCCUCAUAUGCUCGUCUUAU [salish99-s2-v2-x003] (Eterna round: R96, puzzle: Sensor v2, turn-off variant 2)	–	–	–	14.6 nM	322 nM	16.1 nM
AGUACUAUCACGAAAGUGAUAGUACAAUAAACAAGUGAAACAUGAGGAUCACCCAUGUCCUCAUUUGCUCGUCUUAU [Sensor 3 - 1] (puzzle: Sensor v3, turn-off variant 2)	146 nM	389 nM	183 nM	–	–	–
AGUACUAUCACGAAAGUGAUAGUACAAUAAGCUAGUGAAACAUGAGGAUCACCCAUGUCCUCAUUAGCUCGUCUUAU [JL turnoff v2 78] (Eterna round: R96, puzzle: Sensor v2, turn-off variant 2)	–	–	–	14 nM	258 nM	16.4 nM
AGUACUAUCACGAAAGUGAUAGUACAAUAAGCUUGUGAAACAUGAGGAUCACCCAUGUCCUCAUAAGCUCGUCUUAU [JL turnoff v2 77] (Eterna round: R96, puzzle: Sensor v2, turn-off variant 2)	–	–	–	16.1 nM	463 nM	18.7 nM
